Source: the DeepSol protein solubility set

Experiment: soluble on expression in E. coli; label from the status in PepcDB or PDB records

Row | Sequence | soluble on expression in E. coli
1 | MSLGEDSEGSGTSGISPGGNSVSEEVLKHRSMVEKYAKESDILDYVPILLAIIQVESGGTMEDVMQSSESAGLPPNSLSTEASIKQGCIYFASLVKSSKELGCDQDSIIQAYNYGGGYLNYVAKNGKKHSFTLAESFSKEKSGGQKVDYPNPIAIKENGGWRYNYGNMFYCLLVKQYLTTTQFDDKTVQGIFDEAFKYEGTAYVFGGSSPATGFDCSGLTQWCYAKVGLKLPRVAQDQYDVMTHIDLKDAKPGDLIFFHSTYDAGTYVTHVGIYAGENRMFHAGNPVGWTNLTESYWQQHLIGAGRYNEGHHHHHH | soluble
2 | MGSDKIHHHHHHMILKFVIRMGLTISEKIEEIMSSNESNTTLYNISSLEHLHAIFRAYRPHNGFGVVYRGQADCHWKLLPKAGRQEYLLPDDRDLGVFKDWLDRAIAYENVPNYFIEQLALAQHHGLATRLLDWTINPLIACYFACCSYPDKDGVIYILELPKTFATVDLSMETLKECSEVISYRPRQFSPRILNQGGIFTIHNPPDTTIDIGPGRIALDMPNLVQIILGKNLKHDILEMLSDYGIDERYIYPDLDGLSRSLNHSMMRMVRQRVERIDL | not soluble
3 | MKEKISEKEYKALIRKIGKEHFDGEKEEYGDGTVGVWTYELRKYKLKPPVKVKYVTQEQFQEYKDSNNQRLIKIETTLAAQGEQIRIQVEQIKELQIEQKAQGETLKLILQTLQKMSDRLDKMEVKMDKMEEKMDKMEGKIDKIENRMDKMEVKMDKMEKRIDKLESKLEHHHHHH | not soluble
4 | SPLELELCPGRWVGGQHPCFIIAEIGQNHQGDLDVAKRMIRMAKECGADCAKFQKSELEFKFNRKALDRPYTSKHSWGKTYGEHKRHLEFSHDQYRELQRYAEEVGIFFTASGMDEMAVEFLHELNVPFFKVGSGDTNNFPYLEKTAKKGRPMVISSGMQSMDTMKQVYQIVKPLNPNFCFLQCTSAYPLQPEDVNLRVISEYQKLFPDIPIGYSGHETGIAISVAAVALGAKVLERHITLDKTWKGSDHSASLEPGELAELVRSVRLVERALGSPTKQLLPCEMACNEKLGKSVVAKVKIPEGTILTMDMLTVKVGEPKGYPPEDIFNLVGKKVLVTVEEDDTIMEELVDNHGKKIKS | soluble
5 | MAITIQNHELQVTLKALGATMTSITDSQGVEYLWQGDATYWGGQAPILFPICGSVRNDCVIYRPAQAPHFTGIIPRHGFVRHKTFDYDYISDSSVRFTIKSSKEMLINYPYRFSLEITYTLRNKSIAITYIVKNLESEKNMPYAIGAHPGFNCPLFEKEVFSDYYLEFEQFETCTIPESFPDTGLLDLQARHPFLENQKQLSLNHALFEKDAITLDQLRSKTVYLKSRNHAKGIQLDFDDFENLILWTSNNGGPFLALEPWSSLSTSIEESDILEDKQNIVRLNPKQSKQHSIRITILLEHHHHHH | soluble
6 | MTSFTIPGLSDKKASDVADLLQKQLSTYNDLHLTLKHVHWNVVGPNFIGVHEMIDPQVELVRGYADEVAERIATLGKSPKGTPGAIIKDRTWDDYSVERDTVQAHLAALDLVYNGVIEDTRKSIEKLEDLDLVSQDLLIAHAGELEKFQWFVRAHLESAGGQLTHEGQSTEKGAADKARRKSA | soluble
7 | MGSDKIHHHHHHSDDREMDDGRWKASALRVPLQVSSAVIKQEVVTRLAPDPVPLTEGAIGIFLSGTEPESGQEDSGYKVIDNRKYVYSEGHWGPPTANDTIYLVGNDADVCAYYPYKDSYTDKTVIPLQSQDYVETEDIYYALNTMINGFTPAITFDMVHAYSLVELKISRENYFMPCEISKITLKNSNLIKKGTINIAVDGSIHSSETGNYDLTTVTDASPHTLSVGESYVCRVLMIPVPLKIERTDAEGGEFGLSVSLVIDGQQMLVEIPYSELGEFRQGEKYVIGLKIKGTEIVPTVKALEWEDEEVNGGNKYPVE | not soluble
8 | MAHHHHHHMEPSVKESVSRIPLLKTKAGPRDGDKWTARLKEEYASLITYVEHNKASDSHWFHLESNPQGTRWYGTCWTYYKNEKYEFEMNFDIPVTYPQAPPEIALPELEGKTVKMYRGGKICMTTHFFPLWARNVPYFGISHVLALGLGPWLSIEVPAIVEEGYLKPASAATVPTTGE | soluble
9 | MTYCLGVKLKDGLVAIADTRITSGTDTTTAKKLFVHESAHGSLFLMTSGLRSVRDKAITYFKEVLKDEHVVYNQLYEAVNAFGNQLRRVAEEDRKALYAAGFAFNLHTIVGGQLKNDEEPKMFLLYPEGNWIELTQTSPFMIIGNSGYGKPILNRTVKYESTLEEVLKAGFLSFDSTRVSANDVDFPLDVVVYYNNSFKMIEHRFEKKDMEIISTTWDNQLKQALDSVPEEWMNVVFDRKNVLLEHHHHHH | not soluble
10 | MPKNRGVLDAITRSVIDGSDQESSSSFNSDKEYAAVTKGLSSSRVQKKSSLRQMKSKVKELQSLVNHYRENEAALVSSAKLLSGEIIGYEIKMASLHGKMKSILDENNALKETHKSSAEKRIELVRLPSSKEERNYDEYTLLVNLKKEICAKLQDYKNVQNTVNTKLDEIHTFHEKYYEGLELSLDSKVFDAESSKELAKVRRELNNVRKNSEIKVNNLKMQLLQATKSLEHLKKQAKAKDDYLKCIPELVDKANLTMLSYKKSIANQRETIEALQAELSQQSETKGQIETETQNQVQIPTNVTLVDPFEENNPEDLFAIQEQELQDLRLHKKMADERSRTTHLHLERKNNTIKLLQSYVQSLIQRLPPAQRKHHLGIFQKLGSEKSCPLAPAVASTYAPLLLLSQHSNHQEIDNTPQRLLLAAPDGQSYSEKSTTLNLDYSSRKSYLSRLQPPHIANLKSLTLKTLPRVPTDSPQLPSKDKSQETAKKDDRPKLVANEPVTLDTSTPPVAQSLADSKHCSGLHK | not soluble
11 | MSLIIRKLFEFENAHIVRFCSSKRCKSSIHGHSYKVEVLLESKYLDNAGMVYDFGLLKTYIRQIIDSFDHAITLFKYDDAKYLEEMKKYSSRWICLPVNVSAENFCRVFFILIDALLKQTKMVNGEQGVTLQSIIVHETRTGYAQGFREDAEGHHHHHH | not soluble
12 | MKIEIKVQIKDGKNSPNLKPGGYIVSASKSFSIDYSKAVAITRNPEIYKNIGIPYIWISKVEGENAISPTNLPKLLHTMISLSKKHPGVTFIIDSVEYLALENGFESTFKFLISAKDHLMLNNSSLVLIIEDKAFKPNELALLKKEFKEISLEHHHHHH | soluble
13 | AGMSLTQVSGPVYVVEDNYYVQENSMVYFGAKGVTVVGATWTPDTARELHKLIKRVSRKPVLEVINTNYHTDRAGGNAYWKSIGAKVVSTRQTRDLMKSDWAEIVAFTRKGLPEYPDLPLVLPNVVHDGDFTLQEGKVRAFYAGPAHTPDGIFVYFPDEQVLYGGCILKEKLGNLSFADVKAYPQTLERLKAMKLPIKTVIGGHDSPLHGPELIDHYEALIKAAPQSS | soluble
14 | EKMTRDEIEYMLTNSEETLDADEIEMLQGVFSLDELMAREVMVPRTDAFMVDINDDSSDIIQTILNERFSRIPVYDDDKDKIIGIIHTKNLLNAGFKEGFDHINLRRILQEPLFVPETIVVNDLLTALKNTQNQMAILLDEYGGVAGLVTLEDLLEEIVGEIDDETDKTAISVREIADNTYIVLGTM | not soluble
15 | MVTVVDRVTDRRLRHPEKAHRPDTSVQKKPDWIRVKAPTSQVYKETHGIVRAHKLVTVCEEAGCPNIGECWSQRHASFMILGEICTRACAFCNVATGIPFAVDENEPERVADAVARMELKHVVITSVDRDDLADGGAEHFAKVIYAIRRKAPKTTIEVLTPDFRHKDGALEIVVAAKPDVFNHNLETVPSKYLKVRPGARYFHSIRLLQRVKELDPTIFTKSGIMVGLGEERNEILQLMDDLRSADVDFMTIGQYLQPTRKHHPVIRFVPPEEFESFAKIGKVKGFLHMASNPLTRSSHHAGDDFAILQKARDEKFALQR | not soluble
16 | MAHHHHHHMALISQSFAERYAELVARVPTHTELLLDVQRREVGERKALEEMCQVAFQDVLHVAGVMIADKKALGRGALAHRNRFEVALYKKQTAVWFQAAPPRKVALPTTRPLHGFPHAAFAELCQEERELRQWHYGVERRLREHIEEACGRAWFFLNVINETARSESLSRQRLQHEEDEDFTAIKQSFFRAVPADYYRNVVIARYGQTISAIEQAKDLTFEELEEKVRAALMEEEEASWRSAYQYLQDMYDAQLFALNHREVLGRYELEEEERNTLFPLILQCCREDFGIVFYHIPALALHFNSSQPCLRALCVAQLQEAPRRMAATRSRFSWIPAFDLAGMASELGLEEDGDEIEDSAEGETQEAEGSTDGGDDLHNALPPPVDDMPPINTASTMVFEPEVGSSKVPEPETKREEAEVDTSQSAVVALAQRTHEESVLATEMEEHVPVSCAGEENE | soluble
17 | MQVPQDGEDLAGQPWYHGLLSRQKAEALLQQNGDFLVRASGSRGGNPVISCRWRGSALHFEVFRVALRPRPGRPTALFQLEDEQFPSIPALVHSYMTGRRPLSQATGAVVSRPVTWQGPLRRSFSEDTLMDGPARIEPLRARKWSNSQPADLAHMGRSREDPAGMEASTMPISALPRTSSDPVLLKAPAPLGTVADSLRASDGQLQAKAPTKPPRTPSFELPDASERPPTYCELVPRVPSVQGTSPSQSCPEPEAPWWEAEEDEEEENRCFTRPQAEISFCPHDAPSCLLGPQNRPLEPQVLHTLRGLFLEHHPGSTALHLLLVDCQATGLLGVTRDQRGNMGVSSGLELLTLPHGHHLRLELLERHQTLALAGALAVLGCSGPLEERAAALRGLVELALALRPGAAGDLPGLAAVMGALLMPQVSRLEHTWRQLRRSHTEAALAFEQELKPLMRALDEGAGPCDPGEVALPHVAPMVRLLEGEEVAGPLDESCERLLRTLHGARHMVRDAPKFRKVAAQRLRGFRPNPELREALTTGFVRRLLWGSRGAGAPRAERFEKFQRVLGVLSQRLEPDR | soluble
18 | MAHHHHHHMSTTNPTGETTEWDDLQRKYGNLPPLQKEVKEEEIYLNKLEKLEGVNPLEKKNLHELTLLEENCVDEDYLKIIEKHKANRIKEINRSRALDVFGTVYEISKDNFLTEVNEASKRNPLGEHGGRSMESTRGDEDLEEDEEQGVAASSTEGTEGTHVVIHLYSDNVLACKVINSILIQMARKHKYVKFTKGVYNRIVENYPESKLPTLLIYYNGTCIHQICNLLNNIKGGMNNLSLKTFERLMEKYNILRYPSSWMNSRQSVSDHSVNSSDVDSEEGSRYAEKGTRVRTHKQYTSFNMFDSKYTSRDYSSDEDRELKSRGYASSMLDKKVSRNEL | not soluble
19 | MKIVLAYSGGLDTSIILKWLKETYRAEVIAFTADIGQGEEVEEAREKALRTGASKAIALDLKEEFVRDFVFPMMRAGAVYEGYYLLGTSIARPLIAKHLVRIAEEEGAEAIAHGATGKGNDQVRFELTAYALKPDIKVIAPWREWSFQGRKEMIAYAEAHGIPVPVTQEKPYSMDANLLHISYEGGVLEDPWAEPPKGMFRMTQDPEEAPDAPEYVEVEFFEGDPVAVNGERLSPAALLQRLNEIGGRHGVGRVDIVENRFVGMKSRGVYETPGGTILYHARRAVESLTLDREVLHQRDMLSPKYAELVYYGFWYAPEREALQAYFDHVARSVTGVARLKLYKGNVYVVGRKAPKSLYRQDLVSFDEAGGYDQKDAEGFIKIQALRLRVRALVEREGHGA | soluble
20 | MEANMPKRKEPGRSLRIKVISMGNAEVGKSCIIKRYCEKRFVSKYLATIGIDYGVTKVHVRDREIKVNIFDMAGHPFFYEVRNEFYKDTQGVILVYDVGQKDSFDALDAWLAEMKQELGPHGNMENIIFVVCANKIDCTKHRCVDESEGRLWAESKGFLYFETSAQTGEGINEMFQTFYISIVDLCENGGKRPTTNSSASFTKEQADAIRRIRNSKDSWDMLGVKPGASRDEVNKAYRKLAVLLHPDKCVAPGSEDAFKAVVNARTALLKNIK | soluble
